Experimental data taken from US20050089840A1 (FRONTIER BIOTECHNOLOGIES, published 2005).

Assays:
[1] = molecular target: HIV-1 IIIB viral envelope protein gp41 (HIV-1 IIIB) (UniProt P04578); experiment: cell-based or functional assay
[2] = molecular target: HIV-1 IIIB viral envelope protein gp41 (HIV-1 IIIB, UniProt P04578 512-856); experiment: cell-based or functional assay

Molecule: FB006M conjugated with human serum albumin (HSA) (from UniProt P02768 25-609)
- IC50 (nM), 50% viral inhibition drug concentration, HIV-1 IIIB in fresh human PBMC cultures [1]: 3.94 nM
- fold increase of the antiviral IC50 against FB006 [1]: 2.8 fold

Molecule: Ac-WEEWDREINNYTKLIHELIEESQNQQEKNEQELL-NH2 [FB006]
- IC50 (nM), 50% viral inhibition drug concentration, HIV-1 IIIB in fresh human PBMC cultures [2]: 1.41 nM

Molecule: Ac-SLEQIWNNMTWEEWDREINNYTELIHELIEESQNQQEKNEQELL-NH2 [FB005]
- IC50 (nM), 50% viral inhibition drug concentration, HIV-1 IIIB in fresh human PBMC cultures [2]: 0.93 nM
